Results from paper PMC314469, “Protein Interaction Networks by Proteome Peptide Scanning” (PLoS Biology, 2004).

T1: amphyphisin SH3 (AMPH_HUMAN), P49418
T1 chain: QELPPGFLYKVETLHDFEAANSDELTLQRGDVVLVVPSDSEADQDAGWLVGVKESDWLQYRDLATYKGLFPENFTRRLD


Columns and labels:
[1] = target: T1, amphyphisin SH3 (AMPH_HUMAN), P49418; assay: SPOT array
[2] = target: endophilin SH3 (SH3G2_HUMAN), Q99962; assay: SPOT array

Row | Binder | normalised SPOT signal, Boehringer light units (BLU); mean over the file's lines of this peptide [1] | normalised SPOT signal, Boehringer light units (BLU); mean over the file's lines of this peptide [2]
1 | ADVDPQRPPRPEVK [Q9ULR6 191-204] | 2760 | 125
2 | DGEMFMRPGKLFDY [P08574 161-174] | 117 | 72.5
3 | DGKDPRRPKRPRTI [O60663 189-202] | 3740 | 85
4 | DGKFLLRPRKEQGT [P43403 184-197] | 424 | 130
5 | DGRLLYRPNKAGET [Q9ULH0 399-412] | 20 | 44.6
6 | DGRTPLRPSRNTKQ [Q9H0H1 56-69] | 14900 | 287
7 | DGSFLARPSKSNPG [Q06124 26-39] | 96.2 | 36.7
8 | DGVSLSRPGRTADS [P39191 408-421] | 200 | 113
9 | DIKPLKRPRDEDDA [P11387 132-145] | 37.9 | 0
10 | DIPEPRRPVVEQAL [O15031 1306-1319] | 37.2 | 41.3
11 | DIPGPTRPPGQVLS [AAH30713 119-133] | 75 | 85.2
12 | AEEPLHRPKKELSA [P42858 83-96] | 134 | 70.2
13 | DKADLIRPKRKYEK [Q9H2F5 327-340] | 417 | 64.3
14 | DKSPPPRPPSSPYP [O15550 915-929] | 58.2 | 4090
15 | DKSPPPRPPTSPYP [O14607 862-876] | 83.4 | 4530
16 | DKIPFKRPSTYGVP [O95444 394-407] | 35.1 | 67.7
17 | DKKSPTRPKRHAKP [Q99710 3-16] | 4130 | 658
18 | AAESPGRPPPTAAE [Q9UPS7 514-528] | 22 | 51.1
19 | DKKSPTRPKRQAKP [Q9P2W5 3-16] | 3780 | 500
20 | DKLSPDRPIRDTRH [Q9ULT9 130-143] | 3530 | 794
21 | DKNIPMKPPTPLLN [AAM33634 99-113] | 58.3 | 240

Row | Binder | normalised SPOT signal, Boehringer light units (BLU); mean over the file's lines of this peptide [1] | normalised SPOT signal, Boehringer light units (BLU); mean over the file's lines of this peptide [2]
22 | DLHPPPRPPSPTEI [O43154 1259-1273] | 64.8 | 2640
23 | DLLSPRRPPDDPWA [BAC03422 263-277] | 20.5 | 83
24 | AEEQLRRPRIVHVG [Q9UBR1 62-75] | 24.5 | 35.1
25 | DLPGPRRPAAAAAM [Q9NQ62 12-25] | 33.3 | 66
26 | DLSGLKRPSSSAST [Q9Y338 401-414] | 31.5 | 27.9
27 | DMAIPSKPPAASPE [Q8TEH3 531-545] | 40.1 | 80
28 | DMQSFRRPSAASID [Q96QH2 513-526] | 16.7 | 56
29 | DNGGFKRPLAPSGR [Q9Y5U2 118-131] | 31.7 | 98.6
30 | DNIPLSRPKRNLSR [Q9Y4P9 18-31] | 1930 | 138
31 | DNLKLFRPKKLLPK [Q9BQL6 374-387] | 41.9 | 71.6
32 | DPEDLKRPDPASLK [Q8WTY4 218-231] | 16.1 | 82.4
33 | DPEVLKRPEYFGKF [Q9NZN6 122-135] | 43.9 | 108
34 | DPNAPKRPLSGFFL [Q9UJ13 78-91] | 40.7 | 1710
35 | AEERPRRPSQEQSA [Q9Y4D0 963-976] | 17.3 | 882
36 | DPNAPKRPMSAYML [Q08945 543-556] | 41.4 | 82.6
37 | DPNAPKRPPLAFFL [P23497 765-778] | 32 | 8420
38 | DPNAPKRPPSAFFL [P09429 90-103] | 39.5 | 3610
39 | DPNAPKRPPSGFFL [O15347 88-101] | 20 | 5320
40 | DPNFPNKPPLTFDI [Q9H314 810-824] | 45.5 | 47.9
41 | DPNPPKRPLIFDTN [O14802 1370-1383] | 20.6 | 33.1
42 | DPNTFKRPQTPPKI [Q9Y4E3 337-350] | 27.3 | 39.4
